Experimental data: patent publication US20160193292A1 (CURATORS OF THE UNIVERSITY OF MISSOURI, published 2016)

B2: JNK-interacting protein 1 (JIP-1) (other, UniProt Q9WVI9 1-707, looked up)
chain: MAERESGLGGGAASPPAASPFLGLHIASPPNFRLTHDISLEEFEDEDLSEITDECGISLQCKDTLSLRPPRAGLLSAGSSGSAGSRLQAEMLQMDLIDAAGDTPGAEDDEEEEDDELAAQRPGVGPPKAESNQDPAPRSQGQGPGTGSGDTYRPKRPTTLNLFPQVPRSQDTLNNNSLGKKHSWQDRVSRSSSPLKTGEQTPPHEHICLSDELPPQGSPVPTQDRGTSTDSPCRRSAATQMAPPSGPPATAPGGRGHSHRDRIHYQADVRLEATEEIYLTPVQRPPDPAEPTSTFMPPTESRMSVSSDPDPAAYSVTAGRPHPSISEEDEGFDCLSSPERAEPPGGGWRGSLGEPPPPPRASLSSDTSALSYDSVKYTLVVDEHAQLELVSLRPCFGDYSDESDSATVYDNCASASSPYESAIGEEYEEAPQPRPPTCLSEDSTPDEPDVHFSKKFLNVFMSGRSRSSSAESFGLFSCVINGEEHEQTHRAIFRFVPRHEDELELEVDDPLLVELQAEDYWYEAYNMRTGARGVFPAYYAIEVTKEPEHMAALAKNSDWIDQFRVKFLGSVQVPYHKGNDVLCAAMQKIATTRRLTVHFNPPSSCVLEISVRGVKIGVKADDALEAKGNKCSHFFQLKNISFCGYHPKNNKYFGFITKHPADHRFACHVFVSEDSTKALAESVGRAFQQFYKQFVEYTCPTEDIYLE
notes: Endogenous protein in T-cell lysates
B3: Plenty of SH3 domains (POSH) (other)
chain: MDESALLDLLECPVCLERLDASAKVLPCQHTFCKRCLLGIVGSRNELRCPECRTLVGSGVDELPSNILLVRLLDGIKQRPWKPGPGGGGGTTCTNTLRAQGSTVVNCGSKDLQSSQCGQQPRVQAWSPPVRGIPQLPCAKALYNYEGKEPGDLKFSKGDIIILRRQVDENWYHGEVSGVHGFFPTNFVQIIKPLPQPPPQCKALYDFEVKDKEADKDCLPFAKDDVLTVIRRVDENWAEGMLADKIGIFPISYVEFNSAAKQLIEWDKPPVPGVDTAECPSATAQSTSASKHPDTKKNTRKRHSFTSLTMANKSSQGSQNRHSMEISPPVLISSSNPTAAARISELSGLSCSAPSQVHISTTGLIVTPPPSSPVTTGPAFTFPSDVPYQAALGSMNPPLPPPPLLAATVLASTPSGATAAVAAAAAAAAAAGMGPRPVMGSSEQIAHLRPQTRPSVYVAIYPYTPRKEDELELRKGEMFLVFERCQDGWYKGTSMHTSKIGVFPGNYVAPVTRAVTNASQAKVSMSTAGQASRGVTMVSPSTAGGPTQKPQGNGVAGNPSVVPTAVVSAAHIQTSPQAKVLLHMSGQMTVNQARNAVRTVAAHSQERPTAAVTPIQVQNAACLGPASVGLPHHSLASQPLPPMAGPAAHGAAVSISRTNAPMACAAGASLASPNMTSAMLETEPSGRTVTILPGLPTSPESAASACGNSSAGKPDKDSKKEKKGLLKLLSGASTKRKPRVSPPASPTLDVELGAGEAPLQGAVGPELPLGGSHGRVGSCPTDGDGPVAAGTAALAQDAFHRKTSSLDSAVPIAPPPRQACSSLGPVMNEARPVVCERHRVVVSYPPQSEAELELKEGDIVFVHKKREDGWFKGTLQRNGKTGLFPGSFVENI
notes: Endogenous scaffold protein precipitated or detected in T-cell lysates (Co-IP, IP-FCM); also called Sh3Rf1

What was measured:
[1] = biological target: B3; test: IP-FCM with α-POSH beads in the presence of Tat-POSH
[2] = biological target: B3; test: IP-FCM with α-POSH beads, lysates of stimulated OT-I T cells
Description: Associated proteins were assessed by immunoblot. […] Data shown are representative of 6 independent experiments. […] Red histogram represents primary analyte and is shown to serve as a bead loading control.

Rac1 = Rac1 (UniProt P63001 1-189); test: Co-IP with antibodies against Rac1 and immunoblot, OT-I blasts re-stimulated with OVA-Tet/α-CD28
Description: The beads were incubated with the lysates washed and probed with antibodies against the Co-IP target. The levels of associated molecules (secondary analyte/Co-IP target) were quantified relative to IP target (primary analyte/loading control). Specificity was determined by comparison to both isotype and negative control antibodies (FIG. 5 and FIG. 6). […] Shaded histogram represents the staining of an isotype control. […] These two negative controls were used to establish significance of shift above background.
Associated proteins were assessed by immunoblot.

[3] = biological target: B2; test: IP-FCM with α-JIP-1 beads in the presence of Tat-POSH

B1: MLK-3 (enzyme, UniProt Q80XI6 1-850, looked up)
chain: MEPLKNLFLKSPLGSWNGSGSGGGGGTGGVRPEGSPKATAAYANPVWTALFDYEPNGQDELALRKGDRVEVLSRDAAISGDEGWWAGQVGGQVGIFPSNYVSRGGGPPPCEVASFQELRLEEVIGIGGFGKVYRGSWRGELVAVKAARQDPDEDISVTAESVRQEARLFAMLAHPNIIALKAVCLEEPNLCLVMEYAAGGPLSRALAGRRVPPHVLVNWAVQIARGMHYLHCEALVPVIHRDLKSNNILLLQPIEGDDMEHKTLKITDFGLAREWHKTTQMSAAGTYAWMAPEVIKASTFSKGSDVWSFGVLLWELLTGEVPYRGIDCLAVAYGVAVNKLTLPIPSTCPEPFAQLMADCWAQDPHRRPDFASILQQLEALEAQVLREMPRDSFHSMQEGWKREIQGLFDELRAKEKELLSREEELTRAAREQRSQAEQLRRREHLLAQWELEVFERELTLLLQQVDRERPHVRRRRGTFKRSKLRARDGGERISMPLDFKHRITVQASPGLDRRRNVFEVGAGDSPTFPRFRAIQLEPTESGQTWGRQSPRRLEDSSNGERRACWAWGPSSPKPGEAQNGRRRSRMDEATWYLDSDDSSPLGSPSTPPALNGNPPRPSPEPEEPRRAGPTERGNSSGTPKLIQRALLRGTALLASLGLGRDLQPPGGLSRERGESPTAPPPAQMPSPCPPELPSTPLIRLSQTTPDAHSSPTPGPLLLDLGVPSGQPSAKSPRREETRGRTVSPPPGISRSAPGTPGTPRSPPLGLISRPRPSPLRSRIDPWSFVSAGPRPSPLPSPQPAPRRAPWTLFPDSDPFWDSPPANPFRGGSQDCRTQTKDMGAQAPWAPEAGP
notes: Endogenous protein in T-cell lysates; also called MAP3K protein MLK-3
[1]
  binding result: binds

## B2
[2]
  binding result: binds

## B3
Rac1
  binding result: binds

B4: JNK1 (enzyme, UniProt Q91Y86 1-384, looked up)
chain: MSRSKRDNNFYSVEIGDSTFTVLKRYQNLKPIGSGAQGIVCAAYDAILERNVAIKKLSRPFQNQTHAKRAYRELVLMKCVNHKNIIGLLNVFTPQKSLEEFQDVYIVMELMDANLCQVIQMELDHERMSYLLYQMLCGIKHLHSAGIIHRDLKPSNIVVKSDCTLKILDFGLARTAGTSFMMTPYVVTRYYRAPEVILGMGYKENVDLWSVGCIMGEMVCHKILFPGRDYIDQWNKVIEQLGTPCPEFMKKLQPTVRTYVENRPKYAGYSFEKLFPDVLFPADSEHNKLKASQARDLLSKMLVIDASKRISVDEALQHPYINVWYDPSEAEAPPPKIPDKQLDEREHTIEEWKELIYKEVMDLEERTKNGVIRGQPSPLAQVQQ
notes: Endogenous protein in T-cell lysates; also called 46KD JNK1
[3]
  binding result: binds
[2]
  binding result: binds
